Results taken from patent US9296810 (Novartis, dated 2016).
Blank lines part the entries; values can stand above or below the binder they belong to.

How the values were obtained:
[1] = molecular target: T1, Human Serum Albumin (HSA) (human, UniProt P02768 25-609); test: yeast display selection
[2] = molecular target: T1, Human Serum Albumin (HSA); test: sandwich ELISA: VEGFR2-Fc immobilized, cleared lysate, then HSA, anti-HSA-HRP detection
Experimental: (§1) The binding characteristic of the multispecific and bispecific binders from Examples 6 and 7 were assessed as follows. […] Aliquots of cleared lysate of wild-type Fn10 (lane1), clone 87 (multispecific) (lane2), clone 89 (bispecific) (lane3) and PBS were added to the wells and incubated for 1 hour at room-temperature. These were run at different concentrations 1, 2 and 3. After washing 5 times with PBS/0.05% Tween, the wells were incubated with 1 µg/ml HSA in PBS. Detection was performed with HRP conjugated chicken anti-human HSA antibody (Abcam). The ELISA was developed with a […] substrate and the OD-values measured at 450 nm.

[3] = molecular target: T1, Human Serum Albumin (HSA); test: sandwich ELISA
Experimental: as §1

[4] = molecular target: T1, Human Serum Albumin (HSA); test: yeast display selection and ELISA screen of the HSA library
Procedure, shortened: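 Single clones from the HSA library were expressed in E. coli overnight at 37 °C in OvernightExpress medium in 96 deep-well plates, freeze-thawed, lysed with lysozyme/EDTA then DNaseI, and cleared. Wells coated overnight at 4 °C with 1.0 µg/mL HSA and blocked with casein received 50 µL lysate for 1 hour, then were washed. Binding was detected with HRP anti-His-tag antibody and TMB substrate, read as optical density at 450 nm per clone extract.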

T1 sequence (P02768 25-609 limits assumed): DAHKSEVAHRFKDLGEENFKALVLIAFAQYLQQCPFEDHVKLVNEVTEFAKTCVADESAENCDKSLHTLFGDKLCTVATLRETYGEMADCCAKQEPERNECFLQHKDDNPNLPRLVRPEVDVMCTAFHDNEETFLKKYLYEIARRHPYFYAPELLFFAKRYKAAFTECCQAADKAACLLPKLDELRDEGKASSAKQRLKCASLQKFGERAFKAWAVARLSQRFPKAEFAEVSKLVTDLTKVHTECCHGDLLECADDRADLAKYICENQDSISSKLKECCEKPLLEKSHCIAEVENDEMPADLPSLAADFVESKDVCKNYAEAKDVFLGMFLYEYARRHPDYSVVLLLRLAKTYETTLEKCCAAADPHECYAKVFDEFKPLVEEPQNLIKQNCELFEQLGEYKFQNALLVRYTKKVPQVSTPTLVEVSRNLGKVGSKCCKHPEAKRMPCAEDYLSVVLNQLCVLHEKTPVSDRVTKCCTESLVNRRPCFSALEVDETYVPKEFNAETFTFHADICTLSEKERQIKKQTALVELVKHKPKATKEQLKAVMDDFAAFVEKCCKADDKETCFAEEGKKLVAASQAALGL

B1: SEQ ID NO 38 (designed binder)
chain: VSDVPRDLEVVAATPTSLLISWDAPAVTVRYYRITYGKSSHNSAAKEFTVPGSKSTATITRLKSGTDYTITVYAVTGRGDSPASSKPISINYKPEY
binding result [1]: binds

B2: SEQ ID NO 39 (designed binder)
chain: VSDVPRDLEVVAATPTSLLISWDAPAVTVRYYRITYGKKHKHTTVREFTVPGSKSTATIAGKSLGGDYTITVYAVTGRGDSPASSKPISINYTSET
binding result [1]: binds

B3: SEQ ID NO 40 (designed binder)
chain: VSDVPRDLEVVAATPTSLLISWDAPAVTVRYYRITYGRPGHNSKVHEFTVPGSKSTATIDGAKKGHDYTITVYAVTGRGDSPASSKPISINYIMEH
binding result [1]: binds

B4: SEQ ID NO 36 (designed binder)
chain: VSDVPRDLEVVAATPTSLLISWDAPAVTVRYYRITYGNIVAANALPEFTVPGSKSTATITGLMSGIDYTITVYAVTGRGDSPASSKPISINYSTEY
binding result [1]: binds

B5: clone 89 (bispecific Fn3-based binding molecule; VEGFR2/Bottom side SEQ ID NO: 8 merged molecule) (designed binder)
chain: MGVSDVPRDLEVVAATPTSLLISWRHPHFPTRYYRITYGRTDAKSTRKEFTVPLQPPLATIGELKRGRDYTITVYAVTKERNGRELFTPISINYRPEKENLYFQGHHHHHH
notes: the entry ends in ENLYFQG-HHHHHH; also called VEGFR2-HAS; single bispecific fibronectin molecule
binding result [2]: binds

B6: SEQ ID NO 33 (designed binder)
chain: VSDVPRDLEVVAATPTSLLISWDAPAVTVRYYRITYGVMHDKHPKKEFTVPGSKSTATISGLKRGRDYTITVYAVTGRGDSPASSKPISINYKSEA
binding result [1]: binds

B7: clone 87 (multispecific Fn3-based binding molecule; VEGFR2 top side binder fused to bottom side sequence 8 from FIG. 7 with GS linker) (designed binder)
chain: MGVSDVPRDLEVVAATPTSLLISWRHPHFPTRYYRITYGETGGNSPVQEFTVPLQPPLATISGLKPGVDYTITVYAVTKERNGRELFTPISINYRTGGGGSGGGGSVSDVPRDLEVVAATPTSLLISWDAPAVTVRYYRITYGRTDAKSTRKEFTVPGSKSTATIGELKRGRDYTITVYAVTGRGDSPASSKPISINYRPEKENLYFQGHHHHHH
notes: ELISA used cleared lysate, Biacore soluble protein; also called Fibronectin clone 87 (multispecific)
binding result [3]: binds

The next lines start with the values.

binding result [1]: binds
B8: SEQ ID NO 35 (designed binder)
chain: VSDVPRDLEVVAATPTSLLISWDAPAVTVRYYRITYGKNGRHNLDHEFTVPGSKSTATISGLKRGVDYTITVYAVTGRGDSPASSKPISINYHNEN

binding result [4]: binds
B9: SEQ ID NO 8 (designed binder)
chain: VSDVPRDLEVVAATPTSLLISWDAPAVTVRYYRITYGRTDAKSTRKEFTVPGSKSTATIGELKRGRDYTITVYAVTGRGDSPASSKPISINYRPEK
notes: used to build clone 87 and clone 89

binding result [1]: binds
B10: SEQ ID NO 34 (designed binder)
chain: VSDVPRDLEVVAATPTSLLITWDAPAVTVRYYRITYGVAGKTKPRSEFTVPGSKSTATIPHLKLGHDYTITVYAVTGRGDSPASSKPISINYRAEH

binding result [1]: binds
B11: SEQ ID NO 41 (designed binder)
chain: VSNIPKDLEVVAATPTSLLISWDAPAVTVRYYRITYGQTMNGQSNVEFTVPGSKSTATISPSKLGLDYTITVYAVTGRGDSPASSKPISINYLSET

binding result [1]: binds
B12: SEQ ID NO 37 (designed binder)
chain: VSDVPRDLEVVAATPTSLLISWDAPAVTVRYYRITYGKLSQPTKRREFTVPGSKSTATISRLKPGLDYTITVYAVTGRGDSPASSKPISINYHYEL
